Key:
[1] = target: isolated, soluble α3 domain of H-2K^b (recombinant) (murine) (UniProt P01901); assay: native MS
[2] = target: isolated, soluble α3 domain of H-2K^b (recombinant) (murine) (UniProt P01901); assay: SEC
[3] = target: CE3-HA-B*27:05 (HLA-B*27:05 heavy chain) (human); assay: non-reducing SDS-PAGE and Western blot of precipitated surface class I
[4] = target: GFP-K^b (free heavy chain of H-2K^b with N-terminal monomeric GFP) (murine) (UniProt P01901); assay: single-molecule co-tracking
[5] = target: HA-K^b (free heavy chain of H-2K^b with N-terminal HA tag) (murine) (UniProt P01901); assay: FRAP

For “isolated, soluble α3 domain of H-2K^b (recombinant) (from UniProt P01901 205-295) (domain or fragment)”, the stoichiometry N [1] was 2, the Kd [2] was 10 to 20 µM and the stoichiometry N [2] was 2.
“CE3-HA-B*27:05 (HLA-B*27:05 heavy chain) (natural protein)” gave a stoichiometry N [3] of 2.
Work on “GFP-K^b (free heavy chain of H-2K^b with N-terminal monomeric GFP) (from UniProt P01901 22-369) (natural protein)” yielded a fraction of co-locomoting molecules [4] of 3%, a half-life (t½) [4] of 0.22 s and a koff [4] of 3.1 s⁻¹. The stoichiometry N [4] was 2.
Work on “K^b-GFP (free heavy chain of H-2K^b with C-terminal GFP) (from UniProt P01901 22-369) (natural protein)” yielded a half-time of dissociation [5] of 140 s.

Reference: article doi:10.1101/2021.07.02.450866
